Consider 15 sequences from the DeepSol protein solubility set.

The series is described as follows: soluble on expression in E. coli; label from the status in PepcDB or PDB records.
“MRLLLAAPHSGAGKTTVSLALLLALRARGLRVQPFKVGPDYIDPTHLEKAAARRPYNLDGFFLDETGLLALFRHGARGADFALIEGVMGLFDGKDPRGEVGSTAQVARLLKAPVALVVDAKGMAGSIAPLALGFRDFHPGVRVVGVFANRVGSERHAEILKEALKAVGLPLLGWLPQDPALALPERHLGLVLAGEVAPPLEALRRAFRVDLEGVLRLAASAPPLPEARPFLPPRRPPRARVAYAWDKAFSFYYPEALELLEALGAELVPFSPLEDEALPKAHALLLGGGYPELFAERLSANVALREAIRRFPGPIVAECGGYMYLSQGLWVGERFFPMVGLVPGEARMAERPVLGYREVEALRDSPVARKGQAFKGHEFHYARLPASPSPAWRRLGGEEVEGYTDGRVLASFVHLYLPAKPEGVERLLGLASRGKAAGAS”: the “soluble on expression in E. coli” value was “soluble”.

For “MEVPEIEKQIGINLYSTDTTGLGGQLRQEIEDFIVKEITNREEGEEGKYLIVELTKRDWDTHHLTRTLSRILQVSQKRISVAGTKNKRALTTQKISIFDTDASEIEKIHLKDIELKVLGRSRKSVELGDLWGNDFRITVRNIENSPEETEALLKKTTDEILAQGGVPNFFGIQRFGSVRPVTHLVGKAIVEGNFEKAALLYIAEPFPEEPEETKNARQFVKDTLDFKEGLKTYPLRLGHERAMMNHLIANPEDYSGSFRVLPQNLYRMFVHGYQSYIYNIILCRRIEAGIPLNRAVEGDIVCFRNEVGLPDSSKTEKVTSETVNAMNRLLKLGRAFITAPLPGYNTEFASGIPGEIENGVLKELGVSLEGFNIEKFPEMSSKGTRREVLLEVKPKFEAGEDELNPGKSKAVLEFMLPKGSYATTVLREYMKVNPLQMSLEHHHHHH”, the “soluble on expression in E. coli” value is reported as “soluble”.

Regarding “MKILLRNALITNEGKTFPGSVMIDGAFISRIIEGELPADDNLSADEVIECSGLRLFPGCIDDQVHFREPGLTHKATIASESRAAVAGGVTSFMDMPNTNPPTTMWERLLEKRQIGADTAWANYGFFFGGTNDNIDEIKRVDKHLVPGLKLFLGSSTGNMLVDNKETLEKIFGECDLLIATHCEKEEIIRANKEHYKAKYGNDLDIHFHPLIRSEEACYRSSAEAVELAERMNARLHILHLSTEKELSLFRNDIPTAQKRITSEVCVHHLWFSDTDYGRLGNRIKWNPAIKKESDREALRAAVRNGRIDIIATDHAPHLLREKEGSCLQAASGGPLVQHSLLALLELCNQGIFSIEEIVSKTAHIPATLFAIEKRGYIRPGYYADLVLVDPSSPHTVSADNILSLCGWSPFEGFTFSHSVAYTFVNGCLAYAKGRLAESRPTVHPLFFNR”, the “soluble on expression in E. coli” value is recorded as “soluble”.

Turning to “MSVKEPEKFLASHIYNIDYQEDLNKCFANLCTNKKNTILLESAEIDTKDKLKSILVLNSALRIACIENKVFIKPLSENGKYALKAIQENIKKDVDYKYDNNQLVLTFEFIKDYQLSESQKLKKPSVFDALRIIKDSFEIYNEFSIFLAGLFAYDVVASFENIGKIKRKNKCPDYVFYLADTILVSDHQEQKTFIQVNSFGHQTITDLEDSVAAIKQNINNDIELKVEKFKNIEPKESINDRDFCIVVDKLKSHIIDGDIFQVVPSRSFFLPCQNSLEVYKELKRTNPSPYMFYMQDEDFILFGASPESALKYQKSTNQVEIYPIAGTRRRAKNSDGSINADLDSRIELELRLDAKENAEHMMLVDLARNDVARISKTGTRYVADLLKVDRYSHVMHLVSRVVGQLADDLDALHAYQASMNMGTLTGAPKIKAMQLISEVEKQTRGVYGGAIGYFNGYGDLDSCIVIRSAYVENGVAEIQAGAGVVLDSIPIAEADETRTKAQAVISAIKNVHGV”, the “soluble on expression in E. coli” value is on record as “not soluble”.

Turning to “VAVRPVLAVGSYLPHAPWPWGVIDQAARVLLPASTTVRAAVSLPNASAQLVRASGVLPADGTRRAVLYLHGGAFLTCGANSHGRLVELLSKFADSPVLVVDYRLIPKHSIGMALDDCHDGYRWLRLLGYEPEQIVLAGDSAGGYLALALAQRLQEVGEEPAALVAISPLLQLAKEHKQAHPNIKTDAMFPARAFDALDALVASAAARNQVDGEPEELYEPLEHITPGLPRTLIHVSGSEVLLHDAQLAAAKLAAAGVPAEVRVWPGQVHDFQVAASMLPEAIRSLRQIGEYIREATG”, the “soluble on expression in E. coli” value is listed as “not soluble”.

With “MAHHHHHHMMRLSRLGVTAAAAAPSSFPLLQQLRGVRYANIQETLKPIPGQTAGQISILNEICCNPDAEEERRKPVFRAEVMPDAAAAAEEDNYLHTMHKWGYDSLTLFKKTNEDPGPWWNANASTLASNWSQVGDYANAGMWSGVWRYTYGIGEYNLRPYELRGRAWGRKDPKTGAVMIRYGKRSTSKPVQRLCFPHTKEHEQHHRIKNPANKDVKEISALHGKRILRELQYHLGQGLRFYLVDGVFGSDPGTATPYRIITDTPTHAYFASMAAIRTFNYVARQEVTLVKRLSQSPIDEWGWRRPGVLIYHAPSYDFESPRIVEEFGGPRPKDMGLSHNRFIATEPYSIPMKCAMGGEPSCDALLDSTAMLCGRWGFYADEKGYLTVPGESIMSKDGRSLTLVITGDEADADALRTSPQLYGSRHHRIANGVVSRAWDVVSMPACATGAKPLPTDIVEQDLQRVQRSLPTRMGLPHTLSHRHHGRRHVSEYGFKWPHNYTEDVSTKAYAGGHLFKAPKTDKLAGHQPRPSRFLMKDVDVVVIGEGVDAAAAVVSTLKDRGMLYAEEAPLKEAMATALKAAKSVKVVPRASSKVVLGKLTHV”, the “soluble on expression in E. coli” value is given as “not soluble”.

“MSREQAILVGCQLAGVDDERFRYSMEELVSLVATANGEVVAEVTQKREAPHPATYIGKGKTEELAAIVKQLEPDVVIFNSELSPSQARNLTKMLGEVKVIDRT”: the “soluble on expression in E. coli” value is reported as “not soluble”.

Turning to “MLTRDFLQKADCRTSFGCIEETLLLTPQQRADSLDRMLALRPNSCPVWVFGYGSLMWNPVFDAEETCLATLTGWQRAFCLRLTIGRGTVTQPGRMLALQPGGQTTGLAFRLPKTSLREDLELLWKREMLTGCYRPLWCELHRKNGAPLTALVFVSEPEHPLNENDTCIQSVAPLIARASGPLGTNAQYLFALEQELKNHGTEDESVSELAQRVRTLQQSCPAPAGGGQLEHHHHHH”, the “soluble on expression in E. coli” value was “not soluble”.

For the sequence “MGSDKIHHHHHHMITIKEYVVPKSLDEAYELLISRKNNIILGGCGFLKLGSKNIGSAIDLKDLALDYINETDDSILIGADTSLRTLELNKVIKNYCNGVISNAVSNIVGVQFRSGARVGASVFAKYGFSDLIPSLLVVDAKVKLYKKGVMNLADFLENELEKDILIEVILPKKDAIGVFDSIRKCTGDFAVLNGAMLKEGSIYKIAIGARPRRAKIAYKASEILSLENDIEKAGEVSSEELSFGSNIRGSKEYRKDMAKALVVRMYNSIGGECDGK”, the “soluble on expression in E. coli” value was “not soluble”.

Consider “GIDPFTAPGQLECETAIAALNSCLRDLDQASLAAVSQQLAPREGISQEALHTQMLTAVQEISHLIEPLASAARAEASQLGHKVSQMAQYFEPLTLAAVGAASKTLSHPQQMALLDQTKTLAESALQLLYTAKEAGGNPKQAAHTQEALEEAVQMMTEAVEDLTTTLNEAASAAG”, for which the “soluble on expression in E. coli” value was “soluble”.

Take “HNNLLSQLGSSHNSITYDIIFGNKDTKNYYAQFAKKHQTHLYSQISSSNQQELKYVDNDPNLKIKEEAAKSTVQNLTVYS”: the “soluble on expression in E. coli” value was “soluble”.

“MRDYKQLNGLALAYVGDAIYEIYIRDYLVSLGQTKPNVLHRMATHYVSAKAQASLMQAMLAGEMLTEEEEVMYKRGRNAKSHTFAKNADVTTYRVATGFESLMGYLHLTQQKERLEELINWCIKKVGETNEK”: the “soluble on expression in E. coli” value was “not soluble”.

Consider “GSMTEADVNPKAYPLADAHLTKKLLDLVQQSCNYKQLRKGANEATKTLNRGISEFIVMAADAEPLEIILHLPLLCEDKNVPYVFVRSKQALGRACGVSRPVIACSVTIKEGSQLKQQIQSIQQSIERLLV”, for which the “soluble on expression in E. coli” value is reported as “soluble”.

As to “FCYSFCKNYANEIKKIITDFIEHNKINFQNEIENAFITSVIIVHTGIDAFSISLLI”, the “soluble on expression in E. coli” value is recorded as “not soluble”.

In the case of “MGSDKIHHHHHHMSDRKEDLERQINLTFAFLSANSYSRKFLTQVWIRDNVGDYKGLTDTAFRKKLQRDLAYLRRVGVPIEQFTVTSGIAEGQQAYRLAQDSYKLPEVEFTPDEAAVLGMAGEMGHNQELGAFARSGWTKLAAGGAQRDLSTSTALTNAGDLGSLSAKTLDAIIKARQLGKQISFEYRRAPKDAPSLRHMDPWGLVPERDRIYLVGFDLDRQEARTFRITRVRNINLGADATHPMPAGTNLQDMVRAQLRRKSVLIDATLRITPGRAVELRAAGVETSDGAWFLEDVDRDWLVRTAAAHAPEALVIEPKDVIDDVIALLRKVENEVV”, the “soluble on expression in E. coli” value is recorded as “not soluble”.
